Results reported in patent publication US20240343781A1 (published 2024).

B1: 11-11 (antibody, V domains shown)
VH: QVQLQESGPGLVKPSQTLSLTCTVSGGSISSGGYYWSWIRQHPGKGLEWIGYIYYSGSTYYNPSLKSRVTISVDTSKNQFSLKVSSVTAADTAVYYCASSNYYDGSGYNLLESYGMDVWGQGTSVTVSS
VL: QSVLTQPPSVSGAPGQRVTISCTGSSSNIGAGYDVHWYQQLPGTAPKLLIYGNSNRPSGVPDRFSGSRSGTSASLAITGLQAEDEADYYCQSYDSSLSGSWVFGGGTKVTVL
B2: 10-28 (antibody, V domains shown)
VH: QVQLVESGGGVVQPGRSLRLSCAASGFTFSSYDMHWVRQAPGKGLEWVAVISYDGSSKFYAESVKGRFTISRDNSKNTLYLQMNSLRAEETAVYYCVKDGEQLVPLFDYWGQGTLVTVSS
VL: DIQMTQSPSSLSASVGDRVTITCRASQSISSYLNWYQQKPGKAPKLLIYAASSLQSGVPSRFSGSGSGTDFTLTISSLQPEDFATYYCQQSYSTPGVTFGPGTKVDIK
B3: 10-40 (antibody, V domains shown)
VH: QLQLQESGPGLVKPSETLSLTCTVSGGSISSSNFYWGWIRQPPGKGLEWIASITYSGRTFYNPSLKSRVAISVDTSKNQFSLKLSSVTAADTAVYYCARTFPSYYDRSGYHYLNYGMDVWGQGTTVTVSS
VL: NFMLTQPHSMSESPGKTVTISCTRSSGSIASNYVQWYQQRPGSSPTTVIYEDNQRPSGVPDRFSGSIDSSSNSASLTISGLKTEDEADYYCQSYDSSSWVFGGGTKLTVL
B4: engineered monoclonal antibody 10-28 (antibody, V domains shown)
VH: QVQLVESGGGVVQPGRSLRLSCAASGFTFSSYDMHWVRQAPGKGLEWVAVISYDGSSKFYAESVKGRFTISRDNSKNTLYLQMNSLRAEETAVYYCVKDGEQLVPLFDYWGQGTLVTVSS
VL: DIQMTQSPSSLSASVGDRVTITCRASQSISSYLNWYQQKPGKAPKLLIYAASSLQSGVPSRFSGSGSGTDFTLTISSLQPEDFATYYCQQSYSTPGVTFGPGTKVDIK
B5: engineered monoclonal antibody 11-11 (antibody, V domains shown)
VH: QVQLQESGPGLVKPSQTLSLTCTVSGGSISSGGYYWSWIRQHPGKGLEWIGYIYYSGSTYYNPSLKSRVTISVDTSKNQFSLKVSSVTAADTAVYYCASSNYYDGSGYNLLESYGMDVWGQGTSVTVSS
VL: QSVLTQPPSVSGAPGQRVTISCTGSSSNIGAGYDVHWYQQLPGTAPKLLIYGNSNRPSGVPDRFSGSRSGTSASLAITGLQAEDEADYYCQSYDSSLSGSWVFGGGTKVTVL
B6: engineered monoclonal antibody 10-40 (antibody, V domains shown)
VH: QLQLQESGPGLVKPSETLSLTCTVSGGSISSSNFYWGWIRQPPGKGLEWIASITYSGRTFYNPSLKSRVAISVDTSKNQFSLKLSSVTAADTAVYYCARTFPSYYDRSGYHYLNYGMDVWGQGTTVTVSS
VL: NFMLTQPHSMSESPGKTVTISCTRSSGSIASNYVQWYQQRPGSSPTTVIYEDNQRPSGVPDRFSGSIDSSSNSASLTISGLKTEDEADYYCQSYDSSSWVFGGGTKLTVL

Assays:
SARS-CoV-2 Spike = experiment: SPR
WIV1 = experiment: ELISA
Yunnan2011 = experiment: ELISA
BtKY72 = experiment: ELISA
GX-Pangolin = experiment: ELISA
SHC014 = experiment: ELISA
RaTG13 = experiment: ELISA
Rf1 = experiment: ELISA
RmYN02 = experiment: ELISA
Rs4081 = experiment: ELISA
BM-4831 = experiment: ELISA
SARS-CoV = experiment: ELISA
SARS-COV spike trimer = SARS-COV spike trimer (SARS-CoV, UniProt P59594 14-1190); experiment: SPR

Binder | Kd (SARS-CoV-2 Spike) | EC50 (WIV1) | EC50 (Yunnan2011) | EC50 (BtKY72) | EC50 (GX-Pangolin) | EC50 (SHC014) | EC50 (RaTG13) | EC50 (Rf1) | EC50 (RmYN02) | EC50 (Rs4081) | EC50 (BM-4831) | EC50 (SARS-CoV) | Kd (SARS-COV spike trimer)
B1 | 1540 pM | 6 ng/mL | > 10000 ng/mL | 7 ng/mL | > 10000 ng/mL | 6 ng/mL | > 10000 ng/mL | > 10000 ng/mL | > 10000 ng/mL | > 10000 ng/mL | 1500 ng/mL | 19 ng/mL | –
B2 | 0.782 pM | 3 ng/mL | 9 ng/mL | 4 ng/mL | 4 ng/mL | 2 ng/mL | 2 ng/mL | 4 ng/mL | 6 ng/mL | 7 ng/mL | 2 ng/mL | 5 ng/mL | –
B3 | 4.52 pM | 4 ng/mL | 37 ng/mL | 4 ng/mL | 4 ng/mL | 5 ng/mL | 3 ng/mL | 4 ng/mL | 10 ng/mL | 9 ng/mL | 3 ng/mL | 8 ng/mL | –
B4 | – | – | – | – | – | – | – | – | – | – | – | – | 3.69 pM
B5 | – | – | – | – | – | – | – | – | – | – | – | – | 4.51 pM
B6 | – | – | – | – | – | – | – | – | – | – | – | – | 2.21 pM
